The target of experiment [1] is KEAP1 (wild-type full-length), His-tagged (human) (UniProt Q14145). As to the kind of experiment: AlphaScreen; average of three conditions; against wild-type NRF2 isoform 2. In general terms: Alpha assays give light when donor and acceptor beads are brought close together.
The target is the same in experiment [2]. As to the kind of experiment: AlphaScreen; 38.4 nM FLAG-NRF2, 150 nM His-KEAP1 (same value as in Table 23).
Experiment [3] shares this target. Nature of the experiment: AlphaScreen; 9.6 nM FLAG-NRF2, 150 nM His-KEAP1; Repeat 2 (same value as in Table 23).
Experiment [4] has the same target. As to the kind of experiment: AlphaScreen; 19.2 nM FLAG-NRF2, 150 nM His-KEAP1; Repeat 1 (same value as in Table 23).
The target is the same in experiment [5]. As to the kind of experiment: AlphaScreen; 19.2 nM FLAG-NRF2, 150 nM His-KEAP1; against wild-type NRF2 isoform 2 = 100%.
Experiment [6] has the same target. Nature of the experiment: AlphaScreen, all variants on one plate; upper condition (38.4 nM NRF2), KEAP1 150 nM; relative to NRF2 (WT) isoform 2.
The target is the same in experiment [7]. As to the kind of experiment: AlphaScreen; mean over 9.6, 19.2 and 38.4 nM NRF2; 150 nM His-KEAP1.
The target is the same in experiment [8]. As to the kind of experiment: AlphaScreen; 9.6 nM FLAG-NRF2, 150 nM His-KEAP1; wild type set to 100%.
The target is the same in experiment [9]. As to the kind of experiment: AlphaScreen; 19.2 nM FLAG-NRF2, 150 nM His-KEAP1; wild type set to 100%.
Experiment [10] shares this target. Nature of the experiment: AlphaScreen; 38.4 nM FLAG-NRF2, 150 nM His-KEAP1; wild type set to 100%.
For experiment [11] the target is unchanged. As to the kind of experiment: AlphaScreen; 38.4 nM FLAG-NRF2, 150 nM His-KEAP1 (same value as in Table 22).
Experiment [12] shares this target. As to the kind of experiment: AlphaScreen, all variants on one plate; upper condition (38.4 nM NRF2), KEAP1 150 nM; the reference itself.

KEAP1 (wild-type full-length), His-tagged (human), sequence (Q14145 2-624 limits assumed, form in doubt): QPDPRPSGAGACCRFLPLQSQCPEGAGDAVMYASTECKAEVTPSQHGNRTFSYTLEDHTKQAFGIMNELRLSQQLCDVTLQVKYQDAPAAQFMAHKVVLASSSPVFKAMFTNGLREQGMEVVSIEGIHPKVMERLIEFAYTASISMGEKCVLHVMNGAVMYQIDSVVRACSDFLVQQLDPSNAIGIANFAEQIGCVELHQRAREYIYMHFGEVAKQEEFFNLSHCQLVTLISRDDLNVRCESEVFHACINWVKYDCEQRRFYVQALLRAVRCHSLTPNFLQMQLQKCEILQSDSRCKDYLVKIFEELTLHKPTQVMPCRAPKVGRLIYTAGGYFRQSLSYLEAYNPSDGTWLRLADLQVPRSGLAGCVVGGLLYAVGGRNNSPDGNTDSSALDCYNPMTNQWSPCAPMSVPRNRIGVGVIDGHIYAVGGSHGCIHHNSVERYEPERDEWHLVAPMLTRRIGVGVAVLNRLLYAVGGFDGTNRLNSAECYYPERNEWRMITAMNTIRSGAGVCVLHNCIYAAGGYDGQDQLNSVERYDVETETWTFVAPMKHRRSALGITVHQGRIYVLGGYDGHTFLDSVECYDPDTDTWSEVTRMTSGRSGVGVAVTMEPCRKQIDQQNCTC

For the substance “NRF2 isoform 2 (E63G/E66G full-length), FLAG-tagged”, the Reported Value (reduction in binding) in [1] was determined as 69.1%. This substance also had a S/N in experiment [2] of 1.8. In addition, the A-counts in experiment [3] is 1520 A-counts; in [4], 1700 A-counts. This substance also yielded a Binding Percentage (%) in [5] of 19.2%. The same substance registered a % Disruption in Binding in experiment [6] of 61.9%.

“NRF2 isoform 2 (wild-type full-length), FLAG-tagged” had an Average Binding in experiment [7] of 100%. Further, the Binding Percentage (%) in [8], in experiment [9] and in experiment [10] was 100% in each case. The substance further registered a S/N in experiment [11] of 3.4. In [12], this substance displayed a % Disruption in Binding of 0%.

These data come from patent US20250352667A1.
